Results published in publication PMC10470551 (mBio, 2023).

Experiments:
[1] = target: T1, CsTAL (Clostridium scatologenes, UniProt A0A0E3M5J5); test: coupled assays (PfHBDH or CaHAD), NADH at […] nm; assay type: biochemical; conditions: 50 mM Tris-HCl pH 7.5, room temperature
T1 construct: gene CSCA_1088; recombinant, pET-28a(+), N-terminal His6 tag, E. coli BL21(DE3), Ni-NTA
T1 sequence (A0A0E3M5J5 1-281): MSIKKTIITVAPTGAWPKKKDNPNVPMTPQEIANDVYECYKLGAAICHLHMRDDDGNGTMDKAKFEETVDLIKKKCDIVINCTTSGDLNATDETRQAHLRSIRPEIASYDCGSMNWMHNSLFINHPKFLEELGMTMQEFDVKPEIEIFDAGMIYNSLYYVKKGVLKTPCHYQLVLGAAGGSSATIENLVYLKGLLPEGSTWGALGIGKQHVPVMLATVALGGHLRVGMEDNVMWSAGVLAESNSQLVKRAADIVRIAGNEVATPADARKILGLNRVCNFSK

[2] = substrate: O=C1CC(=O)CC(O)C1; test: purified protein; assay type: biochemical, Clostridium scatologenes; conditions: 2 mM Mn2+, 50 mM Tris-HCl pH 7.5, room temperature
[3] = substrate: CC(=O)CC(=O)CC(=O)O; test: purified protein; assay type: biochemical, Clostridium scatologenes; conditions: 1.0 mM NADPH, 50 mM Tris-HCl pH 7.5, room temperature
[4] = substrate: NC(=O)C1=CN([C@@H]2O[C@H](COP(=O)(O)OP(=O)(O)OC[C@H]3O[C@@H](n4cnc5c(N)ncnc54)[C@H](OP(=O)(O)O)[C@@H]3O)[C@@H](O)[C@H]2O)C=CC1; test: purified protein; assay type: biochemical, Clostridium scatologenes; conditions: 50 mM Tris-HCl pH 7.5, room temperature
[5] = substrate: CC(=O)CC(=O)O; test: purified protein; assay type: biochemical, Clostridium scatologenes; conditions: 1.0 mM NADPH, 50 mM Tris-HCl pH 7.5, room temperature
[6] = substrate: NC(=O)C1=CN([C@@H]2O[C@H](COP(=O)(O)OP(=O)(O)OC[C@H]3O[C@@H](n4cnc5c(N)ncnc54)[C@H](O)[C@@H]3O)[C@@H](O)[C@H]2O)C=CC1; test: purified protein; assay type: biochemical, Clostridium scatologenes; conditions: 2.0 mM triacetate (saturating), 50 mM Tris-HCl pH 7.5, room temperature
[7] = substrate: Oc1cc(O)cc(O)c1; test: purified protein; conditions: co-substrate NADPH, 50 mM Tris-HCl pH 7.5, room temperature

In the case of `CC(=O)CC(=O)CC(=O)O` [TAA, 3,5-dioxohexanoate], the “coupled assays (PfHBDH or CaHAD), NADH at 340 nm” value ([1]; co-substrate acetyl-CoA) is reported as “Incubation of CsTAL with triacetate and acetyl-CoA resulted in the formation of acetoacetate and acetoacetyl-CoA”.

With `CC(=O)SCCNC(=O)CCNC(=O)[C@H](O)C(C)(C)COP(=O)(O)OP(=O)(O)OC[C@H]1O[C@@H](n2cnc3c(N)ncnc32)[C@H](O)[C@@H]1OP(=O)(O)O` [acetyl-CoA] the “coupled assays (PfHBDH or CaHAD), NADH at 340 nm” value ([1]; co-substrate triacetate) was “Incubation of CsTAL with triacetate and acetyl-CoA resulted in the formation of acetoacetate and acetoacetyl-CoA”.

B1: CsDPGC (Clostridium scatologenes) (protein)
chain: MGKKVYVDLTHPFSADIPRWPYFVKPVIDSMHSLAKGGVLTQRIDCVQHTGTHCDAPRHVMETEFNGKRARYTHEMPVDAYMGDAVCLEIKAGRWELITAAHLEDACKRANIKPEELEGMVVCLNTGMHRKFDDSKEYYHYSCGTGVEAGKWFVKYKVKCVAMDMQALDHPLHTAMGNNGATRLNLLGASGKPITEEYKEQFGEEAYAEFDKDEYIRIHGKEAYDAKFGDLEEIGCWGTWEPCHKEMLGHGIVGVENLGGDLDKVSGKRFRFLCLPIRWYMGDGSMVRCVAEIDEDNVNKDVADRVYTYGGF
notes: recombinant, pET-28a(+), N-terminal His6 tag, E. coli BL21(DE3), Ni-NTA; mostly apo as purified, Mn2+ added
Molecule B1 has a Km [2] of 190 ± 40 µM and a kcat [2] of 1.04 ± 0.10 s⁻¹.

B2: CsTfD (Clostridium scatologenes) (protein)
chain: MGSIIKNITVFGPGMMGSGIAQVFAGCKDSHVTVFIREKFEYECIDKIKGNLQVMKEKGIVTDADIAELFSRITLTEDMKAATKDADFIIECIPENMELKQNLFKNLEDLCREDTIFATNTSVMSITEISEKSKLKTRIVGTHFWNPPYLIPLVEVVKSDYTSEEVMNKTMELLKTVKKHPIRVNKDVPGFVANRLQHALWREAISIVENGIADAKTVDEAVKYSFGLRLPHLGPIENADMVGTDLTLSIHDYILKHLDKSIEAAPIVRKMVEAGELGFKSGKGFQEWTPEQAKASNESLREYLLKVLYGK
notes: recombinant, codon-optimized synthetic gene, pET-28a(+), N-terminal His6 tag, E. coli BL21(DE3), Ni-NTA
For B2, the Km [3] was 550 µM, the Km ([4]; 2.0 mM triacetate (saturating)) was 1700 µM and the Km [5] was 3690 µM. For the same molecule, the Km [6] was 130 µM.

B3: CsPGR (Clostridium scatologenes) (protein)
chain: MVDKKLINNLFDVKGKVALLTGATGALGKAVAFGYGQAGMKVFITGRSDDKCKALCNELKVDGIECGYSIGDPAIEADVIKIVDDCVAKFGEINVLLTAAGYNHPQPIVEQDLTEWQKIMNSDVQGTWLFCKYVGQKMIDQGKGGKVILVSSARSKMGMAGYTGYCTAKAGIDLMAQSLACEWTAKYGINVNTINPTVFRSDLTEWMFDPESAVYKNFLRRLPIGRLGEPEDFVGPCIFLASSASDFMTGANVATEGGYWAN
notes: recombinant, pET-28a(+), N-terminal His6 tag, E. coli BL21(DE3), Ni-NTA
B3 showed a Km ([4]; co-substrate phloroglucinol) of 210 µM, a kcat ([4]; co-substrate phloroglucinol) of 22.4 to 25.3 s⁻¹ and a Km [7] of 300 µM. For the same molecule, the kcat [7] was 22.4 to 25.3 s⁻¹.
